Patent US6610523B1, “Cytokine-, stress-, and oncoprotein-activated human protein kinase kinases” (University of Massachusetts, priority 1995, dated 2003)

Target: T1, p38 MAP kinase (Homo sapiens, UniProt Q16539)
T1 construct: a PCR fragment containing the coding region of the p38 MAP kinase cDNA; GST (N); made in house; host or cells: bacteria
Assay: Substrate phosphorylation by bacterially-expressed p38 MAP kinase, PhosphorImager quantitation
Format: biochemical
Conditions: 30 minutes reaction; ATF2 = 1.0
Experimental: Substrate phosphorylation by p38 MAP kinase was examined by incubation of bacterially-expressed p38 MAP kinase with IKB, cMyc, EGF-R, cytoplasmic phospholipase A2 (cPLA2), c-Jun, and mutated ATF2 (Thr^69,71) and ATP [γ-^32P] (Raingeaud et al. (1995) J. Biol. Chem 270:7420, herein specifically incorporated by reference). GST-IKB was provided by Dr D. Baltimore (Massachusetts Institute of Technology). GST-cMyc (Alvarez et al. (1991) J. Biol. Chem. 266:15277), GST-EGF-R (residues 647-688) (Koland et al. (1990) Biochem. Biophys. Res. Commun. 166:90), and GST-c-Jun (Dérijard et al. (1994) supra) have been described. The phosphorylation reaction was terminated after 30 minutes by addition of Laemmli sample buffer. The phosphorylated proteins were resolved by SDS-PAGE and detected by autoradiography. The rate phosphorylation of the substrate proteins was quantitated by PhosphorImager (Molecular Dynamics Inc.) analysis. The relative phosphorylation of ATF2, MBP, EGF-R, and IKB was 1.0, 0.23, 0.04, and 0.001, respectively.

T1 sequence (Q16539 whole entry, the tested form may be a part): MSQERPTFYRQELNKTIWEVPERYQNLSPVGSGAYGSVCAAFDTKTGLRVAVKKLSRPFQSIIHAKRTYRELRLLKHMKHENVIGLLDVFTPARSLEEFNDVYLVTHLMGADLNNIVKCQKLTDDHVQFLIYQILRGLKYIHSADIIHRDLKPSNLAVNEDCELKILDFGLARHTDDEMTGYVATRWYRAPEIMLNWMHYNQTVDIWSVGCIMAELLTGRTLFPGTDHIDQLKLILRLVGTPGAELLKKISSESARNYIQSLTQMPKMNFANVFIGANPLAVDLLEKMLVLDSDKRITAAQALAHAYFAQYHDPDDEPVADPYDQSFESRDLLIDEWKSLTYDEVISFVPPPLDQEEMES

B1: ATF2: Activating Transcription Factor-2, substrate protein of p38 (protein)
chain: MKFKLHVNSARQYKDLWNMSDDKPFLCTAPGCGQRFTNEDHLAVHKHKHEMTLKFGPARNDSVIVADQTPTPTRFLKNCEEVGLFNELASPFENEFKKASEDDIKKMPL
In the case of B1, the “relative phosphorylation of substrate protein by p38 MAP kinase” value is reported as 1.0.
